Measured values published in article PMC6068260, “Functional Analysis of a Carboxylesterase Gene Associated With Isoprocarb and Cyhalothrin Resistance in Rhopalosiphum padi (L.)” (Frontiers in Physiology, 2018).

Substrate: CC(=O)Oc1cccc2ccccc12
Experiment: purified protein
Format: biochemical, Rhopalosiphum padi
Conditions: Tris-HCl buffer, 3 mM Fast Blue RR salt, 5 min

B1: RpCarE (Rhopalosiphum padi) (protein)
chain: MEVVIEQGVLKGVQNKTLLSNKPYVSFLGIPYAKPPVNDLRFKPPVKHPGWSGILKAISERDRCMQYAFVANDIIGSEDCLYLNVLVPQNGLNEKLAVMIFIHGGAFNYGCGSVNEQSPDYLLDENVIVITLNYRLNALGFLNLDIDECPGNMGLKDQLFAIKWIKANIAAFGGDVNNITIFGESAGSVSVHYHTMSPQSTGLFQKAIMQSGCAFNPWALNENHRVAAFKLAKNLGCLSSDPNEIVKYLRNVSAIDLVKETKFKDDNGFLDYKFVPSIESDMVSDRFLPAHPKTLATIASPVPVIVGLNSMEGIIALSEYRLSKFSDLQITDEISKLFNNQYSTEVISKIKDFYFNKCNNNCEIAKLENICHLHSDVFFVKDFYRGFDHFLKQNVTPVYIYEFKFDGELNAIKNWIFATRPVLRHALKGACHADEIYYLFRNNLSGVVPKPNSPELEMCKAMGKMWSNFAKTGDPNSLDLSFKWNYASASDTKYLSIDGDRTQMTQGMINNNRSRFWKDLIKESIV
notes: pET-28a His6-tag fusion (tag kept), E. coli BL21(DE3); catalytic triad S185-E312-H432
  Km: 42.98 ± 6.73 µM
  kcat: 5.50 ± 0.28 s⁻¹
  kcat/Km: 130000 M⁻¹ s⁻¹
